Assay [1] has as its target gp140 of clade C strain CAP45.2.00.G3 (HIV-1 (clade C, strain CAP45.2.00.G3)). Nature of the assay: cryo-EM 2D comparison of trimers; 2D comparison of gp140ΔV2TV1 with full length gp140 constructs; trimeric diameters measured.
The target of assay [2] is gp140 of clade C strain CAP239.2.00.G3J (HIV-1 (clade C, strain CAP239.2.00.G3J)). Described as above.
Assay [3] deals with gp140ΔV2TV1, clade C gp140 trimer with a 30-residue truncation in the V2 loop (HIV-1 (clade C, strain TV1)). The description is as above.
For assay [4], the target named is gp140 of clade C strain Du156.1 (HIV-1 (clade C, strain Du156.1)). Described as above.
For assay [5], the target named is full-length soluble trimeric gp140 immunogen from the clade C TV1 strain (HIV-1 (clade C, strain TV1)). The assay is described as above.
The target is the same in assay [6]. In words: cryo-EM structure; unliganded gp140 in vitreous ice, 0.1 mg/ml, Tris buffer 20 mM pH 7.9, 50 mM NaCl; single particle reconstruction, ~21 Å at 0.5 FSC.

Among the data in PMC4231788 are stoichiometry N values, retold here.

As a reminder, the stoichiometry N is a count of units in the complex or per binding partner. In assay [1], “gp140 of clade C strain CAP45.2.00.G3 (natural protein)” had a stoichiometry N of 3. “gp140 of clade C strain CAP239.2.00.G3J (natural protein)”: the stoichiometry N in assay [2] came out at 3. “gp140ΔV2TV1, clade C gp140 trimer with a 30-residue truncation in the V2 loop (natural protein)” displayed a stoichiometry N in assay [3] of 3. Turning to “gp140 of clade C strain Du156.1 (natural protein)”, in assay [4], the stoichiometry N was 3.

As for “full-length soluble trimeric gp140 immunogen from the clade C TV1 strain (natural protein)”, the stoichiometry N in assay [5] and in assay [6] was 3 throughout.
